Test results taken from doi:10.1101/2020.07.27.222380, “NBS1-CtIP–Mediated DNA End Resection Regulates cGAS Binding to Micronuclei”.

Target: cGAS (human, UniProt Q8N884 1-522)
Assay: EMSA; 5-10 uM cGAS, 50 fmol DNA, 1 mM Mg2+; 10 mM Hepes-NaOH pH 7.5, 100 mM NaCl, 1 mM DTT, 1 mM MgCl2, 20 ug/mL BSA, 25-50 fmol DNA, 25 C 30 min; native PAGE 5% or 6% (Methods), 0.5x TBE
Conditions: protein: recombinant; tags: His (pET28a-His-hcGAS); label: 32P

cGAS, sequence (Q8N884 whole entry): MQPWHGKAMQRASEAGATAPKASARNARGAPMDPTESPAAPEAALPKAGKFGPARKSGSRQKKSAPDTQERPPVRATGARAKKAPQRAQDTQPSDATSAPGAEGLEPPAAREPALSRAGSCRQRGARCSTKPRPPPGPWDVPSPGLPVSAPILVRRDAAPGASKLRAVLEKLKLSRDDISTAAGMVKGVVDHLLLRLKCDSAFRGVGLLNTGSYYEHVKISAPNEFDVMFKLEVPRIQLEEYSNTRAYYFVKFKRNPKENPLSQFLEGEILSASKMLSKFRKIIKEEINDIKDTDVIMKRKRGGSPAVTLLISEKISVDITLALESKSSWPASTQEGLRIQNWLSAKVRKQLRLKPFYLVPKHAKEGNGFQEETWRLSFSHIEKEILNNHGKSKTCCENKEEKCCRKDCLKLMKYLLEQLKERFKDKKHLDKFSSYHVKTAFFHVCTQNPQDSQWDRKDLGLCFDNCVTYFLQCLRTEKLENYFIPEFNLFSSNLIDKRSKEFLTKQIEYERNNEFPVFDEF

B1: ISRE 45-bp dsDNA (dsDNA)
DNA 1: TACAGATCTACTAGTGATCTATGACTGATCTGTACATGATCTACACCAAAGAGCATTGTAGATCATGTACAGATCAGTCATAGATCACTAGTAGATCTGTA
DNA 2: TACAGATCTACTAGTGATCTATGACTGATCTGTACATGATCTACAATGCTCTTTGGTGTAGATCATGTACAGATCAGTCATAGATCACTAGTAGATCTGTA
binding result: binds
